± gives the uncertainty stated by the source.
Experiment: self-splicing fitness, log relative to wild type (ln ratio); higher = more splicing; Tetrahymena group I intron in knt gene, E. coli kanamycin selection, DiMSum; sequences stand for … in CUCUCU…GGAGGGAAAAGUUAUCAGGCAUGCACCUGGUAGCUAGUCUUUAAACCAAUAGAUUGCAUCGGUUUAAAAGGCAAGACCGUCAAAUUGCGGGAAAGGGGUCAACAGCCGUUCAGUACCAAGUCUCAGGGGAAACUUUGAGAUGGCCUUGCAAAGGGUAUGGUAAUAAGCUGACGGACAUGGUCCUAACCACGCAGCCAAGUCCUAAGUCAACAGAUCUUCUGUUGAUAUGGAUGCAGUUCACAGACUAAAUGUCGGUCGGGGAAGAUGUAUUCUUCUCAUAAGAUAUAGUCGGACCUCUCCUUAAUGGGAGCUAGCGGAUGAAGUGAUGCAACACUGGAGCCGCUGGGAACUAAUUUGUAUGCGAAAGUAUAUUGAUUAGUUUUGGAGUACUCGUGGUCG
Method in brief: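 DiMSum derived fitness as the error-weighted combination of fold changes across replicates, kanamycin versus no kanamycin, normalised to wild type. E. coli BL21(DE3) held the library, which randomised all eight P1ex-region intron nucleotides within the knt kanamycin-resistance gene on pET-22b(+). Six replicate transformations grew overnight at 37°C or 30°C on LB agar with or without 25 μg/mL kanamycin, also containing 100 μg/mL carbenicillin, 50 μM IPTG and 0.2% rhamnose, and pooled colonies were amplicon-sequenced on an Illumina HiSeq 2500.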

Sequence | self-splicing fitness (ln) (30 °C) | self-splicing fitness (ln) (37 °C)
GUUGAGCAAUAUUACGAGUG | -2.98 ± 0.19 | -3.28 ± 0.28
GUUGAGCAAUAUUACGAUUC | -0.993 ± 0.12 | 0.00124 ± 0.2
GUUGAGCAAUAUUACGCCCU | -1 ± 0.19 | 0.108 ± 0.25
GUUGAGCAAUAUUACGCCUU | -2.32 ± 0.28 | -1.78 ± 0.36
GUUGAGCAAUAUUACGGACU | -3.15 ± 0.24 | -3.49 ± 0.34
GUUGAGCAAUAUUACGGCAC | -0.787 ± 0.17 | -0.486 ± 0.2
GUUGAGCAAUAUUACGGGCU | -2.65 ± 0.26 | -2.23 ± 0.49
GUUGAGCAAUAUUACGGGGG | -3.87 ± 0.31 | -2.34 ± 0.25
GUUGAGCAAUAUUACGGUAU | -4.2 ± 0.23 | -1.71 ± 0.13
GUUGAGCAAUAUUACGUAAA | -2.7 ± 0.2 | -1.73 ± 0.19
GUUGAGCAAUAUUACGUAUG | -2.76 ± 0.34 | -1.52 ± 0.29
GUUGAGCAAUAUUACGUUGC | -2.03 ± 0.42 | 
GUUUAGCAAUAUUACGAAGG | -2.93 ± 0.38 | -1.37 ± 0.26
GUUUAGCAAUAUUACGAAUG | -1.2 ± 0.18 | -0.733 ± 0.18
GUUUAGCAAUAUUACGACAA | -2.09 ± 0.21 | -0.807 ± 0.19
GUUUAGCAAUAUUACGACGC | 0.0175 ± 0.18 | -0.0772 ± 0.24
GUUUAGCAAUAUUACGACGG | -2.88 ± 0.25 | -3.5 ± 0.47
GUUUAGCAAUAUUACGAUCG | -1.61 ± 0.13 | -0.512 ± 0.19
GUUUAGCAAUAUUACGAUGA | -2.41 ± 0.21 | -1.39 ± 0.14
GUUUAGCAAUAUUACGCACG | -2.48 ± 0.44 | 
GUUUAGCAAUAUUACGCACU | -1.41 ± 0.15 | -0.128 ± 0.15
GUUUAGCAAUAUUACGCCUA | -0.696 ± 0.28 | -0.827 ± 0.4
GUUUAGCAAUAUUACGCGGA | -1.9 ± 0.24 | -1.82 ± 0.37
GUUUAGCAAUAUUACGGCAC | -0.0568 ± 0.4 | -0.227 ± 0.43
GUUUAGCAAUAUUACGGGAG | -1.44 ± 0.18 | -1.83 ± 0.2
GUUUAGCAAUAUUACGGGCG | -0.544 ± 0.2 | -1.38 ± 0.21

Sequence | self-splicing fitness (ln) (30 °C) | self-splicing fitness (ln) (37 °C)
GUUUAGCAAUAUUACGGUGG |  | -2.33 ± 0.31
GUUUAGCAAUAUUACGGUUC | -1.09 ± 0.12 | -0.823 ± 0.15
GUUUAGCAAUAUUACGUAAC | -2.2 ± 0.29 | -1.96 ± 0.39
GUUUAGCAAUAUUACGUAGA | -2.37 ± 0.15 | -0.622 ± 0.2
GUUUAGCAAUAUUACGUCGU | -0.72 ± 0.21 | -0.885 ± 0.21
GUUUAGCAAUAUUACGUGUA | -2.53 ± 0.092 | -0.725 ± 0.077
GUUUAGCAAUAUUACGUGUU | -2.4 ± 0.13 | -2.35 ± 0.14
GUUUAGCAAUAUUACGUUAA | -1.87 ± 0.33 | -1.68 ± 0.24
UAAAAGCAAUAUUACGAAUG | -1.18 ± 0.067 | 0.0515 ± 0.081
UAAAAGCAAUAUUACGAAUU | -3.12 ± 0.15 | -1.95 ± 0.18
UAAAAGCAAUAUUACGACGC | -2.67 ± 0.18 | -0.32 ± 0.15
UAAAAGCAAUAUUACGACGG | 0.0981 ± 0.087 | -0.342 ± 0.13
UAAAAGCAAUAUUACGAGCA | -0.549 ± 0.088 | -0.276 ± 0.1
UAAAAGCAAUAUUACGAGGC | -2.69 ± 0.34 | -2.67 ± 0.36
UAAAAGCAAUAUUACGAUAU | -2.59 ± 0.1 | -0.953 ± 0.1
UAAAAGCAAUAUUACGCGCG | -0.577 ± 0.087 | 0.0302 ± 0.11
UAAAAGCAAUAUUACGCUCU | -1.02 ± 0.12 | -0.11 ± 0.14
UAAAAGCAAUAUUACGCUGU | -3.01 ± 0.23 | -2.26 ± 0.2
UAAAAGCAAUAUUACGGACG | 0.221 ± 0.11 | 0.00931 ± 0.13
UAAAAGCAAUAUUACGGAGG | -2.7 ± 0.17 | -2.07 ± 0.16
UAAAAGCAAUAUUACGGGAU | -3.01 ± 0.27 | -2.23 ± 0.18
UAAAAGCAAUAUUACGGUCU | -1.83 ± 0.076 | -0.678 ± 0.079
UAAAAGCAAUAUUACGGUUA | 0.139 ± 0.067 | 0.222 ± 0.079
UAAAAGCAAUAUUACGUACG | -0.745 ± 0.084 | 0.35 ± 0.12
UAAAAGCAAUAUUACGUCCC | -2.74 ± 0.32 | -0.909 ± 0.24
UAAAAGCAAUAUUACGUCGG | -0.992 ± 0.097 | -0.876 ± 0.12

Sequence | self-splicing fitness (ln) (30 °C) | self-splicing fitness (ln) (37 °C)
UAAAAGCAAUAUUACGUGCC | -2.01 ± 0.092 | -1.26 ± 0.12
UAAAAGCAAUAUUACGUGCU | -2.62 ± 0.1 | -1.56 ± 0.11
UAAAAGCAAUAUUACGUUCC | -3.46 ± 0.3 | -2.57 ± 0.29
UAAAAGCAAUAUUACGUUGA | -2.41 ± 0.11 | -1.46 ± 0.11
UAAAAGCAAUAUUACGUUUA | -1.14 ± 0.099 | -0.871 ± 0.099
UAACAGCAAUAUUACGAACC | -2.12 ± 0.17 | -1.73 ± 0.24
UAACAGCAAUAUUACGAACG | -0.391 ± 0.078 | 0.172 ± 0.11
UAACAGCAAUAUUACGACAU | -1.139 ± 0.011 | -0.372 ± 0.032
UAACAGCAAUAUUACGAGUA | -0.835 ± 0.099 | 0.134 ± 0.099
UAACAGCAAUAUUACGAUGU | -2.73 ± 0.13 | -2.08 ± 0.14
UAACAGCAAUAUUACGCACC | -2.33 ± 0.29 | -1.88 ± 0.43
UAACAGCAAUAUUACGCCCC | -1.03 ± 0.28 | -0.834 ± 0.47
UAACAGCAAUAUUACGCCGA | -1.95 ± 0.11 | -0.415 ± 0.089
UAACAGCAAUAUUACGCCGU | -3.54 ± 0.24 | -1.94 ± 0.19
UAACAGCAAUAUUACGCUCU | -1.12 ± 0.073 | -0.498 ± 0.08
UAACAGCAAUAUUACGCUGC | -2.45 ± 0.3 | -1.92 ± 0.28
UAACAGCAAUAUUACGGAUG | -1.51 ± 0.053 | -0.304 ± 0.063
UAACAGCAAUAUUACGGGUG | -0.577 ± 0.049 | -0.256 ± 0.068
UAACAGCAAUAUUACGGUAC | -3.84 ± 0.2 | -2.06 ± 0.13
UAACAGCAAUAUUACGGUCG | -0.363 ± 0.04 | -0.0859 ± 0.056
UAACAGCAAUAUUACGUAAG | -1.46 ± 0.07 | -1.25 ± 0.084
UAACAGCAAUAUUACGUACA | -0.576 ± 0.071 | -0.319 ± 0.092
UAACAGCAAUAUUACGUCCG | -0.0665 ± 0.086 | 0.0833 ± 0.12
UAACAGCAAUAUUACGUGCG | -0.551 ± 0.072 | 0.0501 ± 0.085
UAACAGCAAUAUUACGUGGA | -3.11 ± 0.14 | -1.44 ± 0.08
